In PMC3331940 one finds maximal extent of Cdk4 inhibition data, which are given here for three substances.

For the assay, the target named is Cdk4/cyclin D1 complex (UniProt P11802).
Turning to “p27-KID^(pY88, Y89F) (domain or fragment)”, the maximal extent of Cdk4 inhibition at saturating concentrations was determined as 95%. The figure for “p27-KID^(pY74, pY88, Y89F) (domain or fragment)” is 80%; for “p27-KID^(Y74E, Y89F) (domain or fragment)” it is 98%.
